Results published in US20110189234A1.

Target: Tail-T(ii)-MH chimeric adenovirus spike protein (adenovirus serotype 5; reovirus type 3 Dearing) (UniProt P11818)

anti-His antibody (penta-His MAb; Qiagen)
transduction of 293HissFv.rec cells (luciferase activity): 90%
